The source of these data is publication PMC6093788.

As usually defined, the stoichiometry N is the number of molecules, sites or subunits per partner or assembly.

In the assay the target is azide-labeled Aβ (14–23) peptide. The assay can be described thus: AFM force spectroscopy.

As to azide-labeled Aβ (14–23) peptide, the rupture force, dimer of neighbouring peptides (two-peak curves, peaks close) worked out at 44 pN; the rupture force, dimer of peptides 1 and 3 (two-peak curves, peaks far) came out at 37 pN; the rupture force, monomer from the trimer (peak 1) was determined as 48 pN; the rupture force, monomer from the trimer (peak 1), second experiment amounted to 44 pN. For the same substance, the rupture force, remaining dimer to monomers (peak 2) was found to be 53 pN; the rupture force, remaining dimer to monomers (peak 2), second experiment turned out to be 50 pN; the stoichiometry N was 3.
